Experimental data from article PMC1847684, “Isolation and functional characterization of a cDNA coding a hydroxycinnamoyltransferase involved in phenylpropanoid biosynthesis in Cynara cardunculus L” (BMC Plant Biology, 2007).

Tests used:
Assay in all cases: HPLC product assay, Lineweaver-Burk
Type in all cases: biochemical, Cynara cardunculus
[1] = substrate: CC(C)(COP(=O)(O)OP(=O)(O)OC[C@H]1O[C@@H](n2cnc3c(N)ncnc32)[C@H](O)[C@@H]1OP(=O)(O)O)[C@@H](O)C(=O)NCCC(=O)NCCSC(=O)/C=C/c1ccc(O)c(O)c1; settings: 20 mM quinate as acceptor, sodium phosphate pH 7.5, 1 mM DTT, 30 C
From the text: (§1) HPLC product assay, Lineweaver-Burk on HCT (globe artichoke hydroxycinnamoyltransferase; CcHCT)

[2] = substrate: CC(C)(COP(=O)(O)OP(=O)(O)OC[C@H]1O[C@@H](n2cnc3c(N)ncnc32)[C@H](O)[C@@H]1OP(=O)(O)O)[C@@H](O)C(=O)NCCC(=O)NCCSC(=O)/C=C/c1ccc(O)cc1; settings: 20 mM quinate as acceptor, sodium phosphate pH 7.5, 1 mM DTT, 30 C, recombinant bacterial extract (discussion says purified, no purification described)
From the text: as §1

[3] = substrate: O=C(O)[C@]1(O)C[C@@H](O)[C@@H](O)[C@H](O)C1; settings: 300 μM p-coumaroyl-CoA as donor, sodium phosphate pH 7.5, 1 mM DTT, 30 C
From the text: as §1

B1: HCT (globe artichoke hydroxycinnamoyltransferase; CcHCT) (Cynara cardunculus) (protein)
chain: MKIEVRESTMVRPAEETPRINLWNSNVDLVVPNFHTPSVYFYRPNGAANFFDPKVMKDALSRALVPFYPMGGRLKRDEDGRIEIDCQGQGVLFVEAESDGVIDDFGDFAPTLELRKLIPAVDYTLGIESYSLLVLQVTYFKCGGVSLGVGMQHHAADGASGLHFINTWSDLARGLDLAVPPFIDRTLLRSRDPPQPAFDHIEYQPAPPMKTAPTPTPTDDESVPETTVSIFKLTRDQVNALKGKSKEDGNTVNYSSYEMLSGHVWRCVCKARGLPDDQDTKLYIATDGRARLRPSLPRGYFGNVIFTTTPIAVAGDLQSKPTWYAASKIHDALARMDDDYLKSALDYLELQPDLKALVRGAHTFKCPNLGITSWARLPIHDADFGWGRPIFMGPGGIAYEGLSFVLPSPINDGSLSIVISLQAEHMKLFSKFLYDI
notes: full-length ORF (1308 bp, 436 residues printed, ~50 kDa), pET3a NdeI/BamHI, no tag mentioned, E. coli BL21(DE3) pLysE at 28 C
Km [1]: 61.75 ± 0.004 µM | Vmax [1]: 0.0402 µmol/min/mg | Vmax/Km [1]: 600 µL/min/mg | Km [2]: 53.0 ± 13.0 µM | Vmax [2]: 0.132 µmol/min/mg | Vmax/Km [2]: 2460 µL/min/mg | Km [3]: 9200 ± 5600 µM | Vmax [3]: 0.126 µmol/min/mg | Vmax/Km [3]: 12 µL/min/mg
